{"source": "patent US20210046160A1", "about": "(Synthorx, Inc., priority 2019, published 2021)", "key": {"CT-26 colon tumors": {"test_system": "CT-26 colon tumors", "experiment": "Efficacy in CT-26 tumor-bearing Balb/c mice, Studies 1-3 (tumor growth inhibition, survival)", "type": "in vivo", "settings": "for median survival time: Compound A 6 mg/kg QWx3, anti-PD-1 antibody 10 mg/kg BIWx3, or both", "from_the_text": "Studies of Compound A as monotherapy and in combination with an anti-PD-1 antibody were undertaken in Balb/c female mice. […] Balb/c female mice, 7-8 weeks of age, with an average weight of 18 to 22 g were purchased from Taconic Biosciences by HD Biosciences for study 3. Cryogenically preserved vials of CT-26 colon cancer cells were purchased from American Tissue Type Collection (ATCC, Manassas, Va.). Cells were thawed and cultured according to the manufacturer's protocol. On the day of tumor cell inoculation, cells were washed in serum-free media, counted, and resuspended in cold serum-free media at a concentration of 250,000 (studies 1 and 2) or 300,000 (study 3) viable cells per 0.1 mL. The CT-26 cells (0.1 mL) were injected subcutaneously into the flanks of individual mice and tumors were allowed to grow.\nFor studies 1 and 2 in which a combination of Compound A and an anti-PD-1 antibody were used, the antibody used was anti-mouse PD-1 (BioXcell; RMP1-14) and the control antibody was IgG1 isotype antibody (BioXcell; catalog #BP0089, lot #2A3). For study 3 in which an anti-PD-1 antibody was used, the antibody used was anti-mouse PD-1 (BioXcell; catalog #BP0146, RMP1-14, lot #695318A1) and the control antibody was IgG1 isotype antibody (BioXcell; catalog #BP0089, lot #2A3).\nLyophilized Compound A was reconstituted into 10 mg/mL stock with 0.1 M acetic acid. It was then further diluted into working concentration with 1× phosphate buffered saline (PBS). The compound was reconstituted and diluted within an hour of dosing of animals and kept on ice until dosing. The lyophilized compound was stored at −80° C. before use. Vehicle was stored at 4° C.\nThree separate efficacy studies were performed using CT-26 tumor-bearing Balb/c mice. The design for study 1, which evaluated Compound A for dose-dependent efficacy as a single agent, is outlined in Table 19. The designs for studies 2 and 3, which evaluated the efficacy of Compound A in combination with an anti-PD-1 antibody, are outlined in Table 20 and Table 21, respectively. The route of administration for Compound A was intravenous (IV). IV dosing in the mice was done via the tail vein. The antibody was administered intraperitoneally (IP). All agents were administered based on the individual body weight of each animal obtained immediately prior to each dosing. Details on the dosing regimen are described below.\nIn Study 1, CT-26 tumor-bearing mice were treated with vehicle IV once a week for a total of 3 doses (QWx3) or Compound A at 0.3, 1, or 3 mg/kg IV, either once a week for a total of three doses (QWx3), or once every 2 weeks for a total of 2 doses (Q2Wx2), starting on Day 4 following tumor cell inoculation when the average tumor volume was ˜80 mm^3.\nIn Study 2, CT-26 tumor-bearing mice were treated on Day 5 following tumor cell inoculation when the average tumor volume was ˜80 mm^3. Dosing was with vehicle IV QWx3+ IgG isotype control IP or Compound A at 3 or 6 mg/kg IV, on a QWx3 dosing schedule, or anti-PD-1 antibody at 10 mg/kg IP, or the combination of Compound A at 6 mg/kg IV QWx3+ anti-PD-1 antibody at 10 mg/kg IP. The IP dosing of the antibody in all cases was twice a week for 3 weeks with a total of 6 doses (BIWx3).\nIn Study 3, CT-26 tumor-bearing mice were treated on Day 7 following tumor cell inoculation when the average tumor volume was ˜70 mm3. Dosing was with vehicle IV QWx3+ IgG isotype control IP BIWx3; or Compound A at 1, 3, 6, or 9 mg/kg IV on a QWx3 dosing schedule, or anti-PD-1 antibody at 10 mg/kg IP BIWx3; or the combination of Compound A at 1, 3, or 6 mg/kg IV QWx3+ anti-PD-1 antibody at 10 mg/kg IP BIWx3.\nAnimals were observed daily for clinical signs.\nTumor growth was monitored using digital caliper measurements every 3 to 4 days until the end of the study. Tumor volume was calculated as Width^2×Length/2, where width is the smallest dimension and length is the largest. Raw tumor volume data are presented in the study reports. […]"}, "[1]": {"experiment": "MTD / toxicology study E3826-U1802 in naïve Balb/c mice (hematology, histopathology, organ weight, cytokines)", "type": "in vivo", "settings": "mouse, in vivo", "experimental": "A dose ranging study of P65_30kD was conducted in naïve female Balb/c mice at Crown Biosciences, Inc. (San Diego, Calif.). […] Blood samples were drawn via sub mandibular vein at 8 time points (0.25, 1, 4, 12, 24, 34, 48 & 72 h).\nA major of toxicity associated with high-dose aldesleukin is vascular leak syndrome and associated Cytokine Release Syndrome (CRS). […] The analysis performed was hematology, histopathology, organ weight, and cytokine analyses."}, "[2]": {"experiment": "PK study E3826-U1704 in naïve C57BL/6 mice (human IL-2 ELISA of plasma)", "type": "in vivo", "experimental": "Terminal blood samples were collected via cardiac puncture at the points indicated. […] Plasma and blood cells (in both studies) and tumors in study E3826-U1803 were collected for PK and PD analyses.\nBioanalysis of plasma samples was performed using a qualified human IL-2 ELISA assay (Abcam, Cambridge, UK). Concentrations of Aldesleukin, E62_30kD and P65_30kD and the internal standard in samples derived from plasma were determined using an ELISA assay. […] The PK data were imported into Phoenix WinNonlin v6.4 (Certara/Pharsight, Princeton, N.J.) for analysis. The group mean plasma concentration versus time data were analyzed with noncompartmental methods using an IV bolus administration model."}, "[3]": {"experiment": "PK/PD in cynomolgus monkeys, Study No. 20157276", "settings": "cynomolgus monkey, 0.3 mg/kg single IV"}, "[4]": {"settings": "C57BL/6 female mice, single IV bolus 0.3 mg/kg, E62_5 kD from a separate study"}}, "note": "Several values for one entry are separate records, joined by “and”; a condition that tells them apart may be missing. Equal entries are not always repeated."}
{"substance": "P65_30kD: SEQ ID NO: 25: IL-2 (SEQ ID NO: 4) with P65 replaced by AzK click-conjugated to methoxy linear 30 kDa PEG [Compound P65_30kD]", "values": [{"measurement": "median survival time", "setting": "CT-26 colon tumors; Study 2", "result": 27, "unit": "days"}, {"measurement": "animals surviving", "setting": "CT-26 colon tumors; Study 3, Compound A 3 mg/kg, anti-PD-1 antibody 10 mg/kg, or both, day printed as 'Compound A days'", "result": "0 of 14 animals"}, {"measurement": "median survival time", "setting": "CT-26 colon tumors; Study 3", "result": 35, "unit": "days"}, {"measurement": "animals surviving tumor-free", "setting": "CT-26 colon tumors; Study 3, Compound A 6 mg/kg, anti-PD-1 antibody 10 mg/kg, or both, day printed as 'Compound A days'", "result": "0 of 14 animals"}, {"measurement": "animals found dead following >15% body weight loss due to treatment", "setting": "CT-26 colon tumors; Study 3, Compound A 9 mg/kg IV QWx3", "result": "2 of the 14 animals"}, {"measurement": "% TGI (Relative to Vehicle Control)", "setting": "CT-26 colon tumors; Study #1, Compound A 0.3 mg/kg IV Q2Wx2, Day 15", "result": 20, "unit": "%"}, {"measurement": "% TGI (Relative to Vehicle Control)", "setting": "CT-26 colon tumors; Study #1, Compound A 0.3 mg/kg IV QWx3, Day 15, listed as Compound A, 0.3 mg/kg", "result": 19, "unit": "%"}, {"measurement": "% TGI (Relative to Vehicle Control)", "setting": "CT-26 colon tumors; Study #1, Compound A 1 mg/kg IV Q2Wx2, Day 15", "result": 27, "unit": "%"}, {"measurement": "% TGI (Relative to Vehicle Control)", "setting": "CT-26 colon tumors; Study #1, Compound A 1 mg/kg IV QWx3, Day 15, listed as Compound A, 1 mg/kg", "result": 31, "unit": "%"}, {"measurement": "% TGI (Relative to Vehicle Control)", "setting": "CT-26 colon tumors; Study #1, Compound A 3 mg/kg IV Q2Wx2, Day 15, listed as Compound A, 3 mg/kg", "result": 45, "unit": "%"}, {"measurement": "% TGI (Relative to Vehicle Control)", "setting": "CT-26 colon tumors; Study #1, Compound A 3 mg/kg IV QWx3, Day 15, listed as Compound A, 3 mg/kg", "result": "52% and 51* %"}, {"measurement": "% TGI (Relative to Vehicle Control)", "setting": "CT-26 colon tumors; Study #2, Compound A 3 mg/kg IV QWx3, listed as Compound A, 3 mg/kg", "result": "56.3% and 56%"}, {"measurement": "% TGI (Relative to Vehicle Control)", "setting": "CT-26 colon tumors; Study #2, Compound A 6 mg/kg IV QWx3, listed as Compound A, 6 mg/kg", "result": "35.6% and 36* %"}, {"measurement": "% TGI (Relative to Vehicle Control)", "setting": "CT-26 colon tumors; Study #3, Compound A 1 mg/kg IV QWx3, listed as Compound A, 1 mg/kg", "result": "29.8% and 30%"}, {"measurement": "% TGI (Relative to Vehicle Control)", "setting": "CT-26 colon tumors; Study #3, Compound A 3 mg/kg IV QWx3, listed as Compound A, 3 mg/kg", "result": "58.8% and 59*** %"}, {"measurement": "% TGI (Relative to Vehicle Control)", "setting": "CT-26 colon tumors; Study #3, Compound A 6 mg/kg IV QWx3, listed as Compound A, 6 mg/kg", "result": "86.2% and 86*** %"}, {"measurement": "% TGI (Relative to Vehicle Control)", "setting": "CT-26 colon tumors; Study #3, Compound A 9 mg/kg IV QWx3, listed as Compound A, 9 mg/kg", "result": "84.8% and 85*** %"}, {"measurement": "systemic levels of IFNγ", "setting": "[1]", "result": "transient elevation"}, {"measurement": "fold extended t1/2 compared to aldesleukin", "setting": "[2]; 0.3 mg/kg IV", "result": 23, "unit": "fold"}, {"measurement": "fold reduced CL compared to aldesleukin", "setting": "[2]; 0.3 mg/kg IV", "result": "about 198 fold"}, {"measurement": "AUC0-t", "setting": "[2]; [4]", "result": "45,600 h*ng/mL"}, {"measurement": "AUCINF", "setting": "[2]; [4]", "result": "45,600 h*ng/mL"}, {"measurement": "CL", "setting": "[2]; [4]", "result": 6.58, "unit": "mL/h/kg"}, {"measurement": "Cmax", "setting": "[2]; [4]", "result": "4,870 ng/mL"}, {"measurement": "Tmax", "setting": "[2]; [4]", "result": 1.8, "unit": "min"}, {"measurement": "Vss (distribution volume)", "setting": "[2]; [4]", "result": 0.0824, "unit": "L/kg"}, {"measurement": "t½", "setting": "[2]; [4]", "result": 798, "unit": "min"}, {"measurement": "mean plasma concentrations measurable out to (post-dose)", "setting": "[2]; single IV bolus, 120 h = last measured time point", "result": 120, "unit": "h"}, {"measurement": "AUC0-t, Animal 2705", "setting": "[3]", "result": 120, "unit": "µg·h/mL"}, {"measurement": "AUC0-t, Mean", "setting": "[3]", "result": 121, "unit": "µg·h/mL"}, {"measurement": "CL, Animal 2699", "setting": "[3]", "result": 2.47, "unit": "mL/h/kg"}, {"measurement": "CL, Animal 2705", "setting": "[3]", "result": 2.49, "unit": "mL/h/kg"}, {"measurement": "CL, Mean", "setting": "[3]", "result": 2.48, "unit": "mL/h/kg"}, {"measurement": "Cmax, Animal 2699", "setting": "[3]", "result": 11000, "unit": "ng/mL"}, {"measurement": "Cmax, Animal 2705", "setting": "[3]", "result": 11400, "unit": "ng/mL"}, {"measurement": "Cmax, Mean", "setting": "[3]", "result": 11200, "unit": "ng/mL"}, {"measurement": "Tmax, Animal 2699", "setting": "[3]", "result": 30, "unit": "min"}, {"measurement": "Tmax, Animal 2705", "setting": "[3]", "result": 30, "unit": "min"}, {"measurement": "Vss, Animal 2699", "setting": "[3]", "result": 0.029, "unit": "L/kg"}, {"measurement": "Vss, Animal 2705", "setting": "[3]", "result": 0.0321, "unit": "L/kg"}, {"measurement": "Vss, Mean", "setting": "[3]", "result": 0.0305, "unit": "L/kg"}, {"measurement": "mean plasma concentrations measurable out to (post-dose)", "setting": "[3]", "result": 168, "unit": "h"}, {"measurement": "Tmax, Mean", "setting": "[3]; 0.3 mg/kg", "result": 30, "unit": "min"}]}
